Reference: patent US20150376265A1 (Genentech, published 2015)
Values joined by “and” are separate entries in the source; they are usually repeats but may differ in a detail not shown here. Equal entries are not always repeated. Where two headings read alike, the source gives them in different places.

T1: HCMV gH on virions of strain VR1814 (HCMV, UniProt P12824 24-743)
T1 sequence: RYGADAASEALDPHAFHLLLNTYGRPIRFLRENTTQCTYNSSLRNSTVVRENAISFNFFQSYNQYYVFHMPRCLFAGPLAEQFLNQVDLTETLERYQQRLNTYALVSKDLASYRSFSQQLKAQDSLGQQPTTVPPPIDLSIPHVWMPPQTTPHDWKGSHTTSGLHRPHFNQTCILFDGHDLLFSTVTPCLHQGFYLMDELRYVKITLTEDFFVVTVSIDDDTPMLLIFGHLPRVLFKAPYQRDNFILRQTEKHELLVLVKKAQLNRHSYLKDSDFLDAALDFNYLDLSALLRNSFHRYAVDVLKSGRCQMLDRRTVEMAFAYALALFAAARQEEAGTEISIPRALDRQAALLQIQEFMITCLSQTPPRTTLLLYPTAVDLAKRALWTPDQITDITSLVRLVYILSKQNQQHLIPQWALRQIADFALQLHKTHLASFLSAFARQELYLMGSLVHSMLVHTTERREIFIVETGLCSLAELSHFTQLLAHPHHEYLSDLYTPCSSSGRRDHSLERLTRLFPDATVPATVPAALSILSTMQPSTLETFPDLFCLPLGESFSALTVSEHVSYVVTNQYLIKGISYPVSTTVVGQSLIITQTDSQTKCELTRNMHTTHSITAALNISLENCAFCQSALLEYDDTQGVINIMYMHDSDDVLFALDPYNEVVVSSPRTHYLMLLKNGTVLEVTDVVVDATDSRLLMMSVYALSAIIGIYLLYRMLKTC

B1: HB1 (D53N/T55R) (antibody, V domains shown)
VH: EEQVLESGGGLVKPGGSLRLSCAASGFTFSPYSVFWVRQAPGKGLEWVSSINSNSRYKYYADSVKGRFTISRDNAENSIFLQMNSLRAEDTAVYYCARDRSYYAFSSGSLSDYYYGLDVWGQGTLVTVSS
VL: DIVMTQSPLSLSVTPGEPASISCRSSQSLLHTNGYNYLDWYVQKPGQSPQLLIYLASNRASGVPDRFSGSGSGTDFTLKISRVETEDVGVYYCMQALQIPRTFGQGTKVEIK
B2: HB1 Fab fragment, H2-D53N/T55R (HB1) (Fab, V domains shown)
VH: B1 VH
VL: B1 VL

Key:
Assay in all cases: cell-based or functional assay
[1] = target: T1, HCMV gH on virions of strain VR1814
[2] = target: T1, HCMV gH on virions of strain VR1814; remark: listed apart in the source
[3] = target: T1, HCMV gH on virions of strain VR1814; remark: listed apart in the source
[4] = target: T1, HCMV gH on virions of strain VR1814; remark: listed apart in the source
[5] = target: T1, HCMV gH on virions of strain VR1814; remark: listed apart in the source
[6] = target: T1, HCMV gH on virions of strain VR1814; remark: listed apart in the source

Row | Binder | EC50, block of viral entry into fibroblasts [1] | HB1 EC50, neutralisation of hu8G8 - mutant virus 1 (UL131 Q47K, gH unchanged) [2] | HB1 EC50, neutralisation of hu8G8 - mutant virus 2 (UL131 K51E, gH unchanged) [2] | HB1 EC50, neutralisation of hu8G8 - mutant virus 3 (UL131 D46N, gH unchanged) [2] | HB1 EC50, neutralisation of the No Ab control virus [2] | HB1 EC50, neutralisation of the No Ab control virus [3] | Epithelial EC50 (first pair of columns), neutralisation [4] | Epithelial EC50 (second pair of columns), neutralisation [4] | Fibroblast EC50, neutralisation [4] | MDM EC50, neutralisation [4] | EC50 on epithelial cells, HB1 alone [5] | EC50 of HB1 in the presence of hu8G8 at .000128 µg/ml [6] | EC50 of HB1 in the presence of hu8G8 at .00064 µg/ml [6] | EC50 of HB1 in the presence of hu8G8 at .0032 µg/ml [6] | EC50 of HB1 with hu8G8 at 0 µg/ml [6] | EC50, inhibition of HCMV entry into ARPE-19 cells, Fab fragments from E. coli [1]
1 | B1 | 0.11 µg/ml and 0.7 nM | 0.18 µg/mL | 0.07 µg/mL | 0.06 µg/mL | 0.22 µg/mL | 0.04 µg/mL | 0.05 µg/mL | 0.03 µg/mL | 0.11 µg/mL | 0.03 µg/mL | 0.063 µl/ml | 0.041 µg/mL | 0.043 µg/mL | 0.035 µg/mL | 0.03 µg/mL | –
2 | B2 | – | – | – | – | – | – | – | – | – | – | – | – | – | – | – | 0.15 nM
